Laboratory results published in article PMC6445466, “Structural determination of the complement inhibitory domain of Borrelia burgdorferi BBK32 provides insight into classical pathway complement evasion by Lyme disease spirochetes” (PLoS Pathogens, 2019).

How the values were obtained:
[1] = target: T1, human C1r, full-length enzyme (human, UniProt P00736 18-705); assay: cell-based or functional assay
T1 sequence: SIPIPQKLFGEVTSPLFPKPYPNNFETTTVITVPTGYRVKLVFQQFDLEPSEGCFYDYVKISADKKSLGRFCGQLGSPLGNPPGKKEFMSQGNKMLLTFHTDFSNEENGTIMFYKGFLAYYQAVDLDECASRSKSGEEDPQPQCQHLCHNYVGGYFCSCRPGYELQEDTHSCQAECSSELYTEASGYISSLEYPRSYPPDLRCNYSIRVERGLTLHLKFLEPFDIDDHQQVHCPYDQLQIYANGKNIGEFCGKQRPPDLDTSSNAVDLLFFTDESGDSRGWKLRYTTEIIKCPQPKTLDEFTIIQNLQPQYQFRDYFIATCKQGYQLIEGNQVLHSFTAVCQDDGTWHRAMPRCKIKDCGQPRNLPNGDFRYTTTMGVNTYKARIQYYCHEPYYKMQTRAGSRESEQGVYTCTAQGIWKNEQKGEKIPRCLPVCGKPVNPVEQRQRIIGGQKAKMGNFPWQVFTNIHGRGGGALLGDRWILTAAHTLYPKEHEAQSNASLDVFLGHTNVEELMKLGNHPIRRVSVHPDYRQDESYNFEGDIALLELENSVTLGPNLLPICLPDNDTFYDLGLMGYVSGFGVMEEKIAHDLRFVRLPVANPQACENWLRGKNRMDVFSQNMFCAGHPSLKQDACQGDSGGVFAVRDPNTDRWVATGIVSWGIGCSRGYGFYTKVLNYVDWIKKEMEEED

[2] = target: T2, human C1r, full-length enzyme (human, UniProt P00736 18-705); assay: SPR; Biacore T200, 25°C; borrelial protein immobilised by amine coupling; C1r as analyte, single-cycle kinetics, five-fold dilution series 1.6 to 1000 nM; HBS-T with 5 mM CaCl2; 1:1 kinetic fit; triplicate; settings: both partners purified
T2 construct: complement C1r, human, 92 kDa, CUB1-EGF-CUB2-CCP1-CCP2-SP; bought as purified full-length enzyme; source: bought: Complement Technology (Tyler, TX), purified
T2 sequence: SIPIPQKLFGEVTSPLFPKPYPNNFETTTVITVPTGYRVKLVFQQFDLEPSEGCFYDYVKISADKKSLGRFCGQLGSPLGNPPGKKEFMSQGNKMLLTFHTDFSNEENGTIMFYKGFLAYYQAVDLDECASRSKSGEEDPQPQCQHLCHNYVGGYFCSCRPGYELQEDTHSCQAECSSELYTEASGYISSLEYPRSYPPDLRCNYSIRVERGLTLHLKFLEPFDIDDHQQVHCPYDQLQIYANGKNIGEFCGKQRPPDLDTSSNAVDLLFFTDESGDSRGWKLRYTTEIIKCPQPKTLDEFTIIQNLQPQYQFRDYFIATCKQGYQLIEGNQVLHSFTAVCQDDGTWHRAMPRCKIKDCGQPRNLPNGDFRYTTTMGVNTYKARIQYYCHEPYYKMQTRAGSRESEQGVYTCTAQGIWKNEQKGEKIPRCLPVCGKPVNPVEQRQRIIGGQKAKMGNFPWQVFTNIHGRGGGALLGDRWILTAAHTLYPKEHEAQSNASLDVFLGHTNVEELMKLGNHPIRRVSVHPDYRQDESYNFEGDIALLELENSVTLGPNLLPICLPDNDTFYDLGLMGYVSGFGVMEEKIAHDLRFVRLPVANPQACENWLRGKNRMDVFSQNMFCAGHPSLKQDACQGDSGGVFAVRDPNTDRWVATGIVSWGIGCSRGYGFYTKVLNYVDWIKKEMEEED

B1: BBK32-C (residues 206-354, B. burgdorferi strain B31) (domain or fragment)
chain: SNRYQSYLEGVKYNVDSAIQTITKIYNTYTLFSTKLTQMYSTRLDNFAKAKAKEEAAKFTKEDLEKNFKTLLNYIQVSVKTAANFVYINDTHAKRKLENIEAEIKTLIAKIKEQSNLYEAYKAIVTSILLMRDSLKEVQGIIDKNGVWY
IC50 of C3b deposition, classical pathway-specific ELISA with normal human serum [1]: 14 nM | IC50 of MAC deposition, classical pathway-specific ELISA with normal human serum [1]: 13 nM | IC50 of classical pathway hemolysis of sensitized sheep red blood cells by human serum [1]: 170 nM

B2: BXK32-C (BBK32-C E308K-Q319K-E324Q) (domain or fragment, Borrelia burgdorferi strain B31, UniProt O50835 206-354, looked up)
chain: SNRYQSYLEGVKYNVDSAIQTITKIYNTYTLFSTKLTQMYSTRLDNFAKAKAKEEAAKFTKEDLEKNFKTLLNYIQVSVKTAANFVYINDTHAKRKLENIEAKIKTLIAKIKEKSNLYQAYKAIVTSILLMRDSLKEVQGIIDKNGVWY
notes: BBK32, Borrelia burgdorferi strain B31, residues 206-354 (the limits of BBK32-C) with three residues changed to those of B. garinii BGD19; also called BBK32-E308K-Q319K-E324Q; chimeric BBK32-C; source: recombinant, E. coli codon-optimized synthetic DNA in pT7HMT, purified to homogeneity
Kd [2]: 7.1 nM | koff [2]: 0.00016 s⁻¹ | kon [2]: 22000 M⁻¹ s⁻¹

B3: BBK32-C (residues 206-354, B. burgdorferi strain B31) (domain or fragment)
chain: SNRYQSYLEGVKYNVDSAIQTITKIYNTYTLFSTKLTQMYSTRLDNFAKAKAKEEAAKFTKEDLEKNFKTLLNYIQVSVKTAANFVYINDTHAKRKLENIEAEIKTLIAKIKEQSNLYEAYKAIVTSILLMRDSLKEVQGIIDKNGVWY
notes: BBK32, Borrelia burgdorferi sensu stricto strain B31, residues 206-354; also called BBK32(206-354); source: recombinant, sub-cloned into pT7HMT, purified to homogeneity
Kd [2]: 5.1 nM | koff [2]: 8.6e-05 s⁻¹ | kon [2]: 17000 M⁻¹ s⁻¹
